Sequences and labels used below:
B1: NRC3_wobSeed77_DR3_A14T_o1 (dsDNA)
DNA 1: GCACTTACGGGTCTACGAGGTTATAGCACGCGTATAGCGATTGACAGCGTAGAATGAAGG
DNA 2: CCTTCATTCTACGCTGTCAATCGCTATACGCGTGCTATAACCTCGTAGACCCGTAAGTGC
B2: NRC3_wobSeed77_DR3_G11C_o1 (dsDNA)
DNA 1: B1 DNA 1 with G11C, T14A
DNA 2: B1 DNA 2 with A47T, C50G
B3: NRC3_wobSeed29_DR1_A14C_o1 (dsDNA)
DNA 1: GCGCTTACGGGTCCAAGGTTATAGCATGAATAGAATGCGATTGACAGCGTAGAATGAAGG
DNA 2: CCTTCATTCTACGCTGTCAATCGCATTCTATTCATGCTATAACCTTGGACCCGTAAGCGC
B4: NRC3_wobSeed66_DR2_C13G_o1 (dsDNA)
DNA 1: GCAATACAGGGTGACTAGGCCAGAGTAGGTACGAATGCGATTGACAGCGTAGAATGAAGG
DNA 2: CCTTCATTCTACGCTGTCAATCGCATTCGTACCTACTCTGGCCTAGTCACCCTGTATTGC
B5: NRC3_wobSeed113_DR4_A24C_o1 (dsDNA)
DNA 1: GCATATGTAGGTTAGCTGGGGTCCTTCAGACTAGGCGCGATTGACAGCGTAGAATGAAGG
DNA 2: CCTTCATTCTACGCTGTCAATCGCGCCTAGTCTGAAGGACCCCAGCTAACCTACATATGC
B6: NRC3_random_hg19_368_o1 (dsDNA)
DNA 1: GCTAAGAAACTCAGTCAACATGATATCTATGGCTAAGCGATTGACAGCGTAGAATGAAGG
DNA 2: CCTTCATTCTACGCTGTCAATCGCTTAGCCATAGATATCATGTTGACTGAGTTTCTTAGC
B7: NRC3_wobSeed28_DR1_C20G_o1 (dsDNA)
DNA 1: GCCCTACTGGGCCAAAGGTGATTGATTCCAATGCTCGCGATTGACAGCGTAGAATGAAGG
DNA 2: CCTTCATTCTACGCTGTCAATCGCGAGCATTGGAATCAATCACCTTTGGCCCAGTAGGGC
B8: NRC3_wobSeed116_DR4_G11A_o1 (dsDNA)
DNA 1: GCAGAATGAGATTACCAAAGATCAGGGAAACGCTTGGCGATTGACAGCGTAGAATGAAGG
DNA 2: CCTTCATTCTACGCTGTCAATCGCCAAGCGTTTCCCTGATCTTTGGTAATCTCATTCTGC
B9: NRC3_random_hg19_256_o1 (dsDNA)
DNA 1: GCAGGAGAAACCCACGCTGGTGTCATCACAGGTTCAGCGATTGACAGCGTAGAATGAAGG
DNA 2: CCTTCATTCTACGCTGTCAATCGCTGAACCTGTGATGACACCAGCGTGGGTTTCTCCTGC
B10: NRC3_wobSeed34_DR1_G14T_o1 (dsDNA)
DNA 1: GCATCGAAAGGTCTAAGGTGAGTATACCCACCCGAAGCGATTGACAGCGTAGAATGAAGG
DNA 2: CCTTCATTCTACGCTGTCAATCGCTTCGGGTGGGTATACTCACCTTAGACCTTTCGATGC
B11: NRC3_wobSeed34_DR1_G14C_o1 (dsDNA)
DNA 1: B10 DNA 1 with T14C
DNA 2: B10 DNA 2 with A47G
B12: NRC3_wobSeed136_DR5_A14G_o1 (dsDNA)
DNA 1: GCTAGCCTAGGTCGTTCAGGGGCCAGTATAGAAAGCGCGATTGACAGCGTAGAATGAAGG
DNA 2: CCTTCATTCTACGCTGTCAATCGCGCTTTCTATACTGGCCCCTGAACGACCTAGGCTAGC
B13: NRC3_wobSeed74_DR3_T21A_o1 (dsDNA)
DNA 1: GCTCTAGTTGGTCACGGAGGACACACACGACGGGTAGCGATTGACAGCGTAGAATGAAGG
DNA 2: CCTTCATTCTACGCTGTCAATCGCTACCCGTCGTGTGTGTCCTCCGTGACCAACTAGAGC
B14: NRC3_wobSeed74_DR3_A23C_o1 (dsDNA)
DNA 1: B13 DNA 1 with A21T, A23C
DNA 2: B13 DNA 2 with T38G, T40A
B15: NRC3_wobSeed100_DR4_T22C_o1 (dsDNA)
DNA 1: GCCCTACTGGGCCACGAAAGGCCATTGATTCAGTGAGCGATTGACAGCGTAGAATGAAGG
DNA 2: CCTTCATTCTACGCTGTCAATCGCTCACTGAATCAATGGCCTTTCGTGGCCCAGTAGGGC
B16: NRC3_wobSeed40_DR1_C13T_o1 (dsDNA)
DNA 1: GCTAGCCTAGGTTATGGGCCAGTATACCACGCGAACGCGATTGACAGCGTAGAATGAAGG
DNA 2: CCTTCATTCTACGCTGTCAATCGCGTTCGCGTGGTATACTGGCCCATAACCTAGGCTAGC
B17: NRC3_wobSeed117_DR4_G10C_o1 (dsDNA)
DNA 1: GCCGTCAAACTTCAACTAAGGTAACGTAAAGCACGCGCGATTGACAGCGTAGAATGAAGG
DNA 2: CCTTCATTCTACGCTGTCAATCGCGCGTGCTTTACGTTACCTTAGTTGAAGTTTGACGGC
B18: NRC3_wobSeed104_DR4_G20A_o1 (dsDNA)
DNA 1: GCTCTTGTAGATCAATAGAAGTTAAGAAAGTGCGCTGCGATTGACAGCGTAGAATGAAGG
DNA 2: CCTTCATTCTACGCTGTCAATCGCAGCGCACTTTCTTAACTTCTATTGATCTACAAGAGC
B19: NRC3_random_hg19_104_o1 (dsDNA)
DNA 1: GCTGTAATCACGGTGTGTGAACTACTCATATCGAGTGCGATTGACAGCGTAGAATGAAGG
DNA 2: CCTTCATTCTACGCTGTCAATCGCACTCGATATGAGTAGTTCACACACCGTGATTACAGC
B20: NRC3_wobSeed102_DR4_G19A_o1 (dsDNA)
DNA 1: GCCCTAGCAGGCCAATCTAGGTCACTCAAGGCTTGAGCGATTGACAGCGTAGAATGAAGG
DNA 2: CCTTCATTCTACGCTGTCAATCGCTCAAGCCTTGAGTGACCTAGATTGGCCTGCTAGGGC
B21: NRC3_random_hg19_497_o1 (dsDNA)
DNA 1: GCGGGTTTAGAGATGATTTGCTGTGACAGTGTTGAGGCGATTGACAGCGTAGAATGAAGG
DNA 2: CCTTCATTCTACGCTGTCAATCGCCTCAACACTGTCACAGCAAATCATCTCTAAACCCGC
B22: NRC3_wobSeed141_DR5_C13G_o1 (dsDNA)
DNA 1: GCAGTCAAAGTTGAGGACGAGGTAACGTAAAGCACGGCGATTGACAGCGTAGAATGAAGG
DNA 2: CCTTCATTCTACGCTGTCAATCGCCGTGCTTTACGTTACCTCGTCCTCAACTTTGACTGC
B23: NRC3_wobSeed73_DR3_A18T_o1 (dsDNA)
DNA 1: GCCAAACTAGGTCACAGTGGTCAAAGTCCGTGCGTAGCGATTGACAGCGTAGAATGAAGG
DNA 2: CCTTCATTCTACGCTGTCAATCGCTACGCACGGACTTTGACCACTGTGACCTAGTTTGGC

Changes are numbered by the printed parent chain.

In this series the target is LXRa:RXRa (Homo sapiens, UniProt Q13133;P19793 full;full). Kind of series: no ligand; PBM; 270 nM : 90 nM RXRa; PBS pH 7.4, 2% milk, 0.02% Triton X-100, 1 mM DTT, BSA, 0.4 mg/ml salmon testes DNA. The note with it: tags: His kept;His cleaved; copies: 1;1; label: surface-attached array probe. The gist of the method: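 Ligand-free nuclear receptor dimers were applied to custom Agilent 4×180K protein-binding microarrays whose double-stranded probes carried direct-repeat seeds, single-nucleotide variants, half-site ablations and random human genomic background sequences in 34-nt variable regions. Incubation lasted 1 h. Binding z-scores were computed against the random background probes from regression-normalized fluorescence.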
Chain of LXRa:RXRa (Q13133 whole entry, chain 1 of 2): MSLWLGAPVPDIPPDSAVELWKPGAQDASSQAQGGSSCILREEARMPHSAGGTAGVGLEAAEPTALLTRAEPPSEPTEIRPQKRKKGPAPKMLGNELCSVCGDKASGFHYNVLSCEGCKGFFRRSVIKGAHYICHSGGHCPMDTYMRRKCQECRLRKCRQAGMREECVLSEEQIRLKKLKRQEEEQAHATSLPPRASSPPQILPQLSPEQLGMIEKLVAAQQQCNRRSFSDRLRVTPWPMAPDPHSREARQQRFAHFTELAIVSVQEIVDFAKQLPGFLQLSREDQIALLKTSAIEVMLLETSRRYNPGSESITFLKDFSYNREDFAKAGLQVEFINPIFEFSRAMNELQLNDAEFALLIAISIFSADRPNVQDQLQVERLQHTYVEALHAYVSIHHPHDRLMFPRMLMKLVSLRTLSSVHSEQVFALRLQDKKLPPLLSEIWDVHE
Chain of LXRa:RXRa (P19793 whole entry, chain 2 of 2): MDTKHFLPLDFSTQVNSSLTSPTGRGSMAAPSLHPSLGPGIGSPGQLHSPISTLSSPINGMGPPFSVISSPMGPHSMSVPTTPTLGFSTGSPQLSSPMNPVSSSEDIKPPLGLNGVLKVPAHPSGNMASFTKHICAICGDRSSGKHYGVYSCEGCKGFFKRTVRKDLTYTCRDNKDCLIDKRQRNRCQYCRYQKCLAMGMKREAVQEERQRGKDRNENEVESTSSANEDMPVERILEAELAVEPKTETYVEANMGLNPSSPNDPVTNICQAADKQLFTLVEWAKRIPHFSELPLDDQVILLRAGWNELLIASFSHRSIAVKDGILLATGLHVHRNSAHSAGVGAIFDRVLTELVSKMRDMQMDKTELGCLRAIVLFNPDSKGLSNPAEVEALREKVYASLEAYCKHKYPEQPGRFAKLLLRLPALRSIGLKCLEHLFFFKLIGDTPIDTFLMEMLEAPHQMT
Turning to B1, the binding signal was 0.49 PBM z-score against 500 random probes. The value for B2 was 0.33 PBM z-score against 500 random probes; that for B3 was 0.43 PBM z-score against 500 random probes; that for B4 was 0.22 PBM z-score against 500 random probes. In the case of B5, the binding signal was 0.37 PBM z-score against 500 random probes. As for B6, the binding signal was 0.24 PBM z-score against 500 random probes.

Take B7: the binding signal is 0.13 PBM z-score against 500 random probes. With B8, the binding signal is -0.15 PBM z-score against 500 random probes.

Turning to B9, the binding signal was -0.16 PBM z-score against 500 random probes.

B10: the binding signal was 0.34 PBM z-score against 500 random probes. Take B11: the binding signal is 0.27 PBM z-score against 500 random probes.

As for B12, the binding signal is 0.19 PBM z-score against 500 random probes. With B13, the binding signal was 0.43 PBM z-score against 500 random probes.

For B14, the binding signal was 0.41 PBM z-score against 500 random probes. B15: the binding signal was -0.05 PBM z-score against 500 random probes. Turning to B16, the binding signal was 0.05 PBM z-score against 500 random probes.

For B17, the binding signal was 0.31 PBM z-score against 500 random probes. The value for B18 was 0.44 PBM z-score against 500 random probes.

In the case of B19, the binding signal was -0.03 PBM z-score against 500 random probes. Then B20, with 3 PBM z-score against 500 random probes; and B21, with 0.38 PBM z-score against 500 random probes; and B22, with -0.07 PBM z-score against 500 random probes. With B23, the binding signal was 3.02 PBM z-score against 500 random probes.

These data come from paper PMC6555819, “Comprehensive study of nuclear receptor DNA binding provides a revised framework for understanding receptor specificity”.
